Measurements as given in PMC3839580 (Journal of the American Chemical Society, 2013).
“And” between values parts separate entries of the source, which are not always exact repeats. Identical values can stand only once.

Tests used:
[1] = Size exclusion chromatography of DMPC-based peptide nanoparticles; assay type: physicochemical; conditions: construct 300 μM, PBS, overnight, Superdex 200, standard curve of four globular proteins
plasma total cholesterol = conditions: cited from earlier work
[2] = thought: two apoA-I molecules (10 helices/molecule) reside in discoidal HDL particles; cited from earlier work
[3] = cited from earlier work

## apoA-I: Apolipoprotein A-I, the primary structural protein within HDL particles
[1]
  SEC Stokes diameter: 15 nm and 10 nm
Plasma total cholesterol
  reduction in plasma cholesterol levels, in words: neither apoA-I nor rHDLs cause significant reduction
[2]
  helices per particle (value in parentheses): 20
[3]
  plasma half-life in mice: 11 h
